Biological target: soluble form of the cation-independent mannose 6-phosphate receptor isolated from fetal bovine serum (bovine, UniProt P08169 45-2313)
Assay: SPR

Kd: 22 ± 3 nM
B1: human β-glucuronidase (enzyme, UniProt P08236 23-651, looked up)
chain: LQGGMLYPQESPSRECKELDGLWSFRADFSDNRRRGFEEQWYRRPLWESGPTVDMPVPSSFNDISQDWRLRHFVGWVWYEREVILPERWTQDLRTRVVLRIGSAHSYAIVWVNGVDTLEHEGGYLPFEADISNLVQVGPLPSRLRITIAINNTLTPTTLPPGTIQYLTDTSKYPKGYFVQNTYFDFFNYAGLQRSVLLYTTPTTYIDDITVTTSVEQDSGLVNYQISVKGSNLFKLEVRLLDAENKVVANGTGTQGQLKVPGVSLWWPYLMHERPAYLYSLEVQLTAQTSLGPVSDFYTLPVGIRTVAVTKSQFLINGKPFYFHGVNKHEDADIRGKGFDWPLLVKDFNLLRWLGANAFRTSHYPYAEEVMQMCDRYGIVVIDECPGVGLALPQFFNNVSLHHHMQVMEEVVRRDKNHPAVVMWSVANEPASHLESAGYYLKMVIAHTKSLDPSRPVTFVSNSNYAADKGAPYVDVICLNSYYSWYHDYGHLELIQLQLATQFENWYKKYQKPIIQSEYGAETIAGFHQDPPLMFTEEYQKSLLEQYHLGLDQKRRKYVVGELIWNFADFMTEQSPTRVLGNKKGIFTRQRQPKSAAFLLRERYWKIANETRYPHSVAKSQCLENSLFT
modifications: mannose 6-phosphate on its glycans (Man-6-P-containing lysosomal enzyme; nonphosphorylated enzyme removed)
